Assay results from US20090010911A1, “METHODS AND COMPOSITIONS FOR AFFECTING CYCLOPHILIN A REGULATION OF KINASES IN MODULATING CELLULAR ACTIVITIES” (IOWA STATE UNIVERSITY RESEARCH FOUNDATION, INC., priority 2007, published 2009).

Tests used:
Lck kinase domain = assay: Pull-down assay of Lck kinase domain with Itk SH2 domain; format: binding; conditions: anti-Myc immunoprecipitation, anti-His blot
Source text: The Itk SH2 domains were immunoprecipitated using an anti-Myc antibody and the samples were western blotted with an anti-His antibody to detect the presence of the Lck kinase domain. Lanes 1 and 2 are beads alone control.
The samples were washed, boiled, resolved on an SDS-PAGE gel, transferred to PVDF membrane and western blotted with an anti-His antibody (clone HIS.H8 from Upstate). • (1) Wilcox, H. M., and Berg, L. J. (2003) Itk phosphorylation sites are required for functional activity in primary T cells. J Biol Chem 278, 37112-21. • (2) Hawkins, J., and Marcy, A. (2001) Characterization of Itk tyrosine kinase: contribution of noncatalytic domains to enzymatic activity. Protein Expr Purif 22, 211-9.

full length Itk = biological target: T1, full length Itk (Mus musculus, UniProt Q03526); assay: In vitro Itk kinase assay using Peptide B as the substrate (initial velocities); format: biochemical; conditions: full length Itk
T1 construct: made in house; host or cells: Sf9 insect cells (baculovirus), co-infected 1:1 with Lck baculovirus
T1 sequence (Q03526 1-625): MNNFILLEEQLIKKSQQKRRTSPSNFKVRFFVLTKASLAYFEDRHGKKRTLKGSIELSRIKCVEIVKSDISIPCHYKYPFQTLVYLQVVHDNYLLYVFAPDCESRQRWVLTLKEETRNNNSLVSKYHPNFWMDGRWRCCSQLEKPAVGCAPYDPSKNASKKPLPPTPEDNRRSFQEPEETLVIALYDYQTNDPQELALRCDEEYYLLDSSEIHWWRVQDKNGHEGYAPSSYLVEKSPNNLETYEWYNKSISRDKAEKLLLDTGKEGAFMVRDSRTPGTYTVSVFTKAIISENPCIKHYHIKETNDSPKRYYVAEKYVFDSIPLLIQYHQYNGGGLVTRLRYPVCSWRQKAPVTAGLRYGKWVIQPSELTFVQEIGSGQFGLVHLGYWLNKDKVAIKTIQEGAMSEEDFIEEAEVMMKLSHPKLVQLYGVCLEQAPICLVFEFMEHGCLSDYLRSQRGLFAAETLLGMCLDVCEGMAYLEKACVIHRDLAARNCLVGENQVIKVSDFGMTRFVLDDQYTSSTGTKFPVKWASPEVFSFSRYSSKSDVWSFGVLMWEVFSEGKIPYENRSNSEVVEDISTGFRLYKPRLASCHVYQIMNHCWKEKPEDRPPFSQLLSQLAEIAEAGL
Procedure: Substrate used in each experiment is indicated above each set of blots. 4(a) (left) Itk 32 substrate was incubated with Itk full-length enzyme as before (lane 1), or with Itk 32 domain:free Itk SH2 domain in ratios of 1:10, 1:25 or 1:50 (lanes 2-4, respectively) or equivalent ratios of PI3K N-terminal SH2 domain (lanes 5-7) and subjected to an in vitro kinase assay. […] Coomassie stain and an anti-FLAG blot (bottom panels) show protein levels. (right) The PLCγ1 SH2 domain competes with the PLCγ1 substrate in a similar manner. Lane 1 contains only Itk enzyme and PLCγ1 SH2C-Y783-substrate without additional free SH2 domain. Ratios of free SH2 domain to substrate are 1:5, 1:10 or 1:50 in lanes 2-4, respectively and equivalent ratios of PI3K SH2 domain are used in lanes 5-7. Coomassie stain of the gel and an anti-Itk blot (bottom panels) show protein levels. 4(b) Same experiment as shown in (a) using the Grb2 SH2 domain as a control. (left) Itk 32 substrate was incubated with Itk full-length enzyme (lane 1), or with Itk 32 domain:free Itk SH2 domain in ratios of 1:10 and 1:25 (lanes 2 & 3) or equivalent ratios of Grb2 SH2 domain (lanes 4 & 5) and subjected to an in vitro kinase assay. […]
The ratio of CypA to Itk varied between o and 100 times excess CypA. […] No change in Peptide B phosphorylation is detected. […]

- interaction with Lck kinase domain (pull-down) (Lck kinase domain): direct interaction
- levels of peptide B phosphorylation (initial velocity) with increasing concentrations of SH2 domain (full length Itk): do not change significantly
B1: Itk SH2 domain: isolated exogenous SH2 domain of Itk, purified from bacteria (protein)
chain: EWYNKSISRDKAEKLLLDTGKEGAFMVRDSRTPGTYTVSVFTKAIISENPCIKHYHIKETNDSPKRYYVAEKYVFDSIPLLIQYHQYNGGGLVTRLRYPVCSWRQKA
